Data on 40 sequences can be found in the supplement of paper PMC7877785.

± gives the uncertainty stated by the source.

The nature of the series: self-splicing fitness, log relative to wild type (ln ratio); higher = more splicing; Tetrahymena group I intron in knt gene, E. coli kanamycin selection, DiMSum; sequences stand for … in CUCUCU…GGAGGGAAAAGUUAUCAGGCAUGCACCUGGUAGCUAGUCUUUAAACCAAUAGAUUGCAUCGGUUUAAAAGGCAAGACCGUCAAAUUGCGGGAAAGGGGUCAACAGCCGUUCAGUACCAAGUCUCAGGGGAAACUUUGAGAUGGCCUUGCAAAGGGUAUGGUAAUAAGCUGACGGACAUGGUCCUAACCACGCAGCCAAGUCCUAAGUCAACAGAUCUUCUGUUGAUAUGGAUGCAGUUCACAGACUAAAUGUCGGUCGGGGAAGAUGUAUUCUUCUCAUAAGAUAUAGUCGGACCUCUCCUUAAUGGGAGCUAGCGGAUGAAGUGAUGCAACACUGGAGCCGCUGGGAACUAAUUUGUAUGCGAAAGUAUAUUGAUUAGUUUUGGAGUACUCGUGGUCG
In short, it runs like this: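 Fitness was computed with DiMSum as the error-weighted combination of replicate fold changes, kanamycin versus none, each normalised to wild type. The library randomised all eight intron nucleotides of the P1ex region, with the intron placed in the knt kanamycin-resistance gene on pET-22b(+) in E. coli BL21(DE3). Six replicate transformations were grown overnight at 37°C or 30°C on LB agar with or without 25 μg/mL kanamycin, plus 100 μg/mL carbenicillin, 50 μM IPTG and 0.2% rhamnose. Pooled colonies were amplicon-sequenced on an Illumina HiSeq 2500.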

Consider GAUAAGCAAUAUUACGGCUG, for which the “self-splicing fitness (ln)” value (30 °C) was -0.569 ± 0.067 and the “self-splicing fitness (ln)” value (37 °C) is 0.0614 ± 0.1. As for AAGAAGCAAUAUUACGUUGC, the “self-splicing fitness (ln)” value runs as follows: (30 °C) -4.64 ± 0.31; (37 °C) -3.65 ± 0.32. Consider AUUAAGCAAUAUUACGCCAC, for which the “self-splicing fitness (ln)” value (37 °C) is -1.53 ± 0.39. Turning to UCGAAGCAAUAUUACGAAUA, the “self-splicing fitness (ln)” value reads like this: (30 °C) -1.96 ± 0.2; (37 °C) -1.76 ± 0.3. For AUUUAGCAAUAUUACGAGUA, in that order: -2.95 ± 0.27 and -0.93 ± 0.18. UUCAAGCAAUAUUACGAUUC: the “self-splicing fitness (ln)” value is -2.57 ± 0.15 (30 °C) and -2.22 ± 0.19 (37 °C). As for GUCUAGCAAUAUUACGUCCA, the “self-splicing fitness (ln)” value was -1.07 ± 0.31 (30 °C) and -0.455 ± 0.21 (37 °C). CAAUAGCAAUAUUACGGCAC: the “self-splicing fitness (ln)” value (30 °C) was -3.57 ± 0.2 and the “self-splicing fitness (ln)” value (37 °C) is -3.06 ± 0.28. Take UGCCAGCAAUAUUACGUACA: the “self-splicing fitness (ln)” value was -0.269 ± 0.076 (30 °C) and 0.081 ± 0.089 (37 °C).

Take ACGGAGCAAUAUUACGCAAU: the “self-splicing fitness (ln)” value runs as follows: (30 °C) -2.81 ± 0.24; (37 °C) -3.02 ± 0.43. Regarding ACAGAGCAAUAUUACGCAUU, the “self-splicing fitness (ln)” value runs as follows: (30 °C) -4.18 ± 0.27; (37 °C) -2.99 ± 0.31. The corresponding values for ACCCAGCAAUAUUACGUCGG are -2.15 ± 0.073 and -0.593 ± 0.088. Consider GUUUAGCAAUAUUACGUGAG, for which the “self-splicing fitness (ln)” value reads like this: (30 °C) -0.583 ± 0.062; (37 °C) -0.124 ± 0.08. For GCGAAGCAAUAUUACGUUCC, in that order: -2.43 ± 0.37 and -2.29 ± 0.44. As to CCGCAGCAAUAUUACGGGUA, the “self-splicing fitness (ln)” value by setting is: (30 °C) -4.25 ± 0.42; (37 °C) -2.44 ± 0.22. For UUAUAGCAAUAUUACGUCAG, in that order: -1.61 ± 0.13 and -0.818 ± 0.12. The corresponding values for UAAAAGCAAUAUUACGCAGA are -2.11 ± 0.093 and -1.17 ± 0.086. As to AGCCAGCAAUAUUACGAGCC, the “self-splicing fitness (ln)” value (37 °C) was -0.75 ± 0.32. Turning to ACCGAGCAAUAUUACGCUCG, the “self-splicing fitness (ln)” value runs as follows: (30 °C) -3.22 ± 0.32; (37 °C) -1.61 ± 0.2. Take UGACAGCAAUAUUACGAGGA: the “self-splicing fitness (ln)” value (30 °C) is -2.51 ± 0.16 and the “self-splicing fitness (ln)” value (37 °C) is -3.06 ± 0.22. As to UUCAAGCAAUAUUACGUUAA, the “self-splicing fitness (ln)” value (30 °C) is -1.59 ± 0.11 and the “self-splicing fitness (ln)” value (37 °C) is -1.47 ± 0.12. With CCGAAGCAAUAUUACGUAGC, where the note is “30 °C”, the “self-splicing fitness (ln)” value is -3 ± 0.33. In the case of UAGGAGCAAUAUUACGGCGC, the “self-splicing fitness (ln)” value (30 °C) was -1.76 ± 0.36 and the “self-splicing fitness (ln)” value (37 °C) was -2.54 ± 0.41. For the sequence GGGUAGCAAUAUUACGGUCC, the “self-splicing fitness (ln)” value (30 °C) is -1.34 ± 0.25. On to AGGUAGCAAUAUUACGCAAU, for which the “self-splicing fitness (ln)” value is -1.959 ± 0.017 (30 °C) and -1.03 ± 0.034 (37 °C).

Turning to GAGAAGCAAUAUUACGCAUA, the “self-splicing fitness (ln)” value is, setting by setting: (30 °C) -1.72 ± 0.13; (37 °C) -1.01 ± 0.14. The corresponding values for UGGCAGCAAUAUUACGUCGG are -0.425 ± 0.097 and -0.268 ± 0.13.

On to CUGCAGCAAUAUUACGCUCU, for which the “self-splicing fitness (ln)” value runs as follows: (30 °C) -3.52 ± 0.41; (37 °C) -2.27 ± 0.25. The corresponding values for AGUUAGCAAUAUUACGUUCA are -1.28 ± 0.15 and -0.155 ± 0.16. Turning to AAGUAGCAAUAUUACGUAGU, the “self-splicing fitness (ln)” value by setting is: (30 °C) -3.59 ± 0.19; (37 °C) -2.32 ± 0.21. For UGAUAGCAAUAUUACGUCGC, the “self-splicing fitness (ln)” value (37 °C) is -2.13 ± 0.39.

For the sequence GUCUAGCAAUAUUACGUCUA, the “self-splicing fitness (ln)” value is, setting by setting: (30 °C) -1.33 ± 0.23; (37 °C) -1.22 ± 0.16. For UUGUAGCAAUAUUACGCUAG, in that order: -2.06 ± 0.22 and -0.816 ± 0.21. For AGGUAGCAAUAUUACGGAGC, the “self-splicing fitness (ln)” value is -4.047 ± 0.034 (30 °C) and -2.5 ± 0.04 (37 °C). The corresponding values for UACCAGCAAUAUUACGGCCU are -0.232 ± 0.078 and 0.212 ± 0.094. ACAUAGCAAUAUUACGACGG: the “self-splicing fitness (ln)” value by setting is: (30 °C) -1 ± 0.091; (37 °C) -0.32 ± 0.12.

As for GCGUAGCAAUAUUACGAAAA, the “self-splicing fitness (ln)” value runs as follows: (30 °C) -2.22 ± 0.41; (37 °C) -1.48 ± 0.25. For UCGUAGCAAUAUUACGGGCG, in that order: -2.12 ± 0.18 and -1.11 ± 0.17. Turning to GGAUAGCAAUAUUACGGGAG, the “self-splicing fitness (ln)” value (37 °C) is -2.52 ± 0.21. Take CAUCAGCAAUAUUACGACAU: the “self-splicing fitness (ln)” value (30 °C) was -2.905 ± 0.017 and the “self-splicing fitness (ln)” value (37 °C) was -1.51 ± 0.033.
